The values that follow come from the supplement of paper PMC5998384.

Series [1] deals with HeLa Kyoto. Description: solubility change mitosis vs G1/S (difference of NP-40 vs SDS log2 ratios) (log2 ratio difference); higher = more soluble in mitosis.
Series [2] deals with HeLa Kyoto. Description: solubility in G1/S (NP-40 vs SDS abundance) (log2 ratio); higher = more soluble. Conditions: cell cycle stage: G1/S.
Series [3] relates to HeLa Kyoto. Description: melting temperature (median over replicates), in situ; higher = more thermally stable.
For series [4], the system named is HeLa Kyoto. Description: thermal stability score vs G1/S (z-score of summed log2 fold changes over temperatures); higher = more thermally stable than in G1/S.
The mark [5] stands for this setting: cell cycle stage: early G1 (4.5 h after nocodazole release).
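For melting temperature (median over replicates), in situ in this document: HeLa Kyoto cells synchronized by double thymidine or nocodazole block, proteins quantified by TMT10plex mass spectrometry, three independent biological replicates.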
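For solubility change mitosis vs G1/S (difference of NP-40 vs SDS log2 ratios) in this document: synchronized HeLa Kyoto cells (double thymidine block for G1/S, nocodazole release for mitosis), protein amounts in NP-40 versus SDS lysates quantified by mass spectrometry, three biological replicates.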
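For solubility in G1/S (NP-40 vs SDS abundance) in this document: HeLa Kyoto cells arrested at G1/S by double thymidine block, proteins quantified by TMT10plex mass spectrometry in mild NP-40 versus SDS extracts, three biological replicates.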
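For thermal stability score vs G1/S (z-score of summed log2 fold changes over temperatures) in this document: synchronized HeLa Kyoto cells, proteins quantified by TMT10plex mass spectrometry, three biological replicates, mitosis taken 0.5 h after nocodazole release, G1/S directly after double thymidine block.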

In the case of “MMNKLYIGNLSPAVTADDLRQLFGDRKLPLAGQVLLKSGYAFVDYPDQNWAIRAIETLSGKVELHGKIMEVDYSVSKKLRSRKIQIRNIPPHLQWEVLDGLLAQYGTVENVEQVNTDTETAVVNVTYATREEAKIAMEKLSGHQFENYSFKISYIPDEEVSSPSPPQRAQRGDHSSREQGHAPGGTSQARQIDFPLRILVPTQFVGAIIGKEGLTIKNITKQTQSRVDIHRKENSGAAEKPVTIHATPEGTSEACRMILEIMQKEADETKLAEEIPLKILAHNGLVGRLIGKEGRNLKKIEHETGTKITISSLQDLSIYNPERTITVKGTVEACASAEIEIMKKLREAFENDMLAVNQQANLIPGLNLSALGIFSTGLSVLSPPAGPRGAPPAAPYHPFTTHSGYFSSLYPHHQFGPFPHHHSYPEQEIVNLFIPTQAVGAIIGKKGAHIKQLARFAGASIKIAPAEGPDVSERMVIITGPPEAQFKAQGRIFGKLKEENFFNPKEEVKLEAHIRVPSSTAGRVIGKGGKTVNELQNLTSAEVIVPRDQTPDENEEVIVRIIGHFFASQTAQRKIREIVQQVKQQEQKYPQGVASQRSK [IGF2BP2]”, in the series with HeLa Kyoto [1], the “solubility change mitosis (log2)” value worked out at 0.0614. Also, the “solubility in G1/S (log2)” value with HeLa Kyoto [2] is -0.0149. In addition, the melting temperature in the series with HeLa Kyoto [3] (cell cycle stage: G1/S) was 48.7 °C; with HeLa Kyoto [3] (cell cycle stage: mitosis), 47.8 °C. The results for the thermal stability score in the series on HeLa Kyoto [4] (setting [5]) and in the series with HeLa Kyoto [4] (cell cycle stage: mitosis) were -0.347 and -0.134, respectively.

Turning to “MMRLRGSGMLRDLLLRSPAGVSATLRRAQPLVTLCRRPRGGGRPAAGPAAAARLHPWWGGGGWPAEPLARGLSSSPSEILQELGKGSTHPQPGVSPPAAPAAPGPKDGPGETDAFGNSEGKELVASGENKIKQGLLPSLEDLLFYTIAEGQEKIPVHKFITALKSTGLRTSDPRLKECMDMLRLTLQTTSDGVMLDKDLFKKCVQSNIVLLTQAFRRKFVIPDFMSFTSHIDELYESAKKQSGGKVADYIPQLAKFSPDLWGVSVCTVDGQRHSTGDTKVPFCLQSCVKPLKYAIAVNDLGTEYVHRYVGKEPSGLRFNKLFLNEDDKPHNPMVNAGAIVVTSLIKQGVNNAEKFDYVMQFLNKMAGNEYVGFSNATFQSERESGDRNFAIGYYLKEKKCFPEGTDMVGILDFYFQLCSIEVTCESASVMAATLANGGFCPITGERVLSPEAVRNTLSLMHSCGMYDFSGQFAFHVGLPAKSGVAGGILLVVPNVMGMMCWSPPLDKMGNSVKGIHFCHDLVSLCNFHNYDNLRHFAKKLDPRREGGDQRVKSVINLLFAAYTGDVSALRRFALSAMDMEQRDYDSRTALHVAAAEGHVEVVKFLLEACKVNPFPKDRWNNTPMDEALHFGHHDVFKILQEYQVQYTPQGDSDNGKENQTVHKNLDGLL”, in the series on HeLa Kyoto [1], the “solubility change mitosis (log2)” value was -0.0383. Moreover, the “solubility in G1/S (log2)” value in the series on HeLa Kyoto [2] came to 0.0237. For the same sequence, the values for the melting temperature in the series with HeLa Kyoto [3] (cell cycle stage: G1/S) and in the series on HeLa Kyoto [3] (cell cycle stage: mitosis) were 49.7 °C and 50.4 °C, respectively. In addition, the values for the thermal stability score with HeLa Kyoto [4] (setting [5]) and with HeLa Kyoto [4] (cell cycle stage: mitosis) were 0.55 and 2.21, respectively.

Turning to “MNAGSDPVVIVSAARTIIGSFNGALAAVPVQDLGSTVIKEVLKRATVAPEDVSEVIFGHVLAAGCGQNPVRQASVGAGIPYSVPAWSCQMICGSGLKAVCLAVQSIGIGDSSIVVAGGMENMSKAPHLAYLRTGVKIGEMPLTDSILCDGLTDAFHNCHMGITAENVAKKWQVSREDQDKVAVLSQNRTENAQKAGHFDKEIVPVLVSTRKGLIEVKTDEFPRHGSNIEAMSKLKPYFLTDGTGTVTPANASGINDGAAAVVLMKKSEADKRGLTPLARIVSWSQVGVEPSIMGIGPIPAIKQAVTKAGWSLEDVDIFEINEAFAAVSAAIVKELGLNPEKVNIEGGAIALGHPLGASGCRILVTLLHTLERMGRSRGVAALCIGGGMGIAMCVQRE [ACAT2]”, in the series on HeLa Kyoto [1], the “solubility change mitosis (log2)” value was -0.0395. Moreover, in the series with HeLa Kyoto [2], the “solubility in G1/S (log2)” value was found to be 0.305. Moreover, the melting temperature worked out at 58.4 °C with HeLa Kyoto [3] (cell cycle stage: G1/S) and 58.2 °C in the series with HeLa Kyoto [3] (cell cycle stage: mitosis). The values for the thermal stability score in the series on HeLa Kyoto [4] (setting [5]) and in the series with HeLa Kyoto [4] (cell cycle stage: mitosis) were -0.261 and -1.17, respectively.

On to “MNEVSVIKEGWLHKRGEYIKTWRPRYFLLKSDGSFIGYKERPEAPDQTLPPLNNFSVAECQLMKTERPRPNTFVIRCLQWTTVIERTFHVDSPDEREEWMRAIQMVANSLKQRAPGEDPMDYKCGSPSDSSTTEEMEVAVSKARAKVTMNDFDYLKLLGKGTFGKVILVREKATGRYYAMKILRKEVIIAKDEVAHTVTESRVLQNTRHPFLTALKYAFQTHDRLCFVMEYANGGELFFHLSRERVFTEERARFYGAEIVSALEYLHSRDVVYRDIKLENLMLDKDGHIKITDFGLCKEGISDGATMKTFCGTPEYLAPEVLEDNDYGRAVDWWGLGVVMYEMMCGRLPFYNQDHERLFELILMEEIRFPRTLSPEAKSLLAGLLKKDPKQRLGGGPSDAKEVMEHRFFLSINWQDVVQKKLLPPFKPQVTSEVDTRYFDDEFTAQSITITPPDRYDSLGLLELDQRTHFPQFSYSASIRE [AKT2]”, for which, in the series with HeLa Kyoto [1], the “solubility change mitosis (log2)” value was -0.26. Also, in the series with HeLa Kyoto [2], the “solubility in G1/S (log2)” value is -0.0498. In addition, the melting temperature came out at 50.5 °C with HeLa Kyoto [3] (cell cycle stage: G1/S) and 50.2 °C in the series on HeLa Kyoto [3] (cell cycle stage: mitosis). Also, the thermal stability score with HeLa Kyoto [4] (setting [5]) was determined as 1.03; in the series with HeLa Kyoto [4] (cell cycle stage: mitosis), 0.619.

With “MNGEADCPTDLEMAAPKGQDRWSQEDMLTLLECMKNNLPSNDSSKFKTTESHMDWEKVAFKDFSGDMCKLKWVEISNEVRKFRTLTELILDAQEHVKNPYKGKKLKKHPDFPKKPLTPYFRFFMEKRAKYAKLHPEMSNLDLTKILSKKYKELPEKKKMKYIQDFQREKQEFERNLARFREDHPDLIQNAKKSDIPEKPKTPQQLWYTHEKKVYLKVRPDATTKEVKDSLGKQWSQLSDKKRLKWIHKALEQRKEYEEIMRDYIQKHPELNISEEGITKSTLTKAERQLKDKFDGRPTKPPPNSYSLYCAELMANMKDVPSTERMVLCSQQWKLLSQKEKDAYHKKCDQKKKDYEVELLRFLESLPEEEQQRVLGEEKMLNINKKQATSPASKKPAQEGGKGGSEKPKRPVSAMFIFSEEKRRQLQEERPELSESELTRLLARMWNDLSEKKKAKYKAREAALKAQSERKPGGEREERGKLPESPKRAEEIWQQSVIGDYLARFKNDRVKALKAMEMTWNNMEKKEKLMWIKKAAEDQKRYERELSEMRAPPAATNSSKKMKFQGEPKKPPMNGYQKFSQELLSNGELNHLPLKERMVEIGSRWQRISQSQKEHYKKLAEEQQKQYKVHLDLWVKSLSPQDRAAYKEYISNKRKSMTKLRGPNPKSSRTTLQSKSESEEDDEEDEDDEDEDEEEEDDENGDSSEDGGDSSESSSEDESEDGDENEEDDEDEDDDEDDDEDEDNESEGSSSSSSSSGDSSDSDSN [UBTF]”, the “solubility change mitosis (log2)” value in the series on HeLa Kyoto [1] came to 0.149. The “solubility in G1/S (log2)” value in the series on HeLa Kyoto [2] was -1.89. This sequence also yielded a melting temperature with HeLa Kyoto [3] (cell cycle stage: G1/S) of 47.2 °C. Besides, the thermal stability score worked out at 8.89 in the series with HeLa Kyoto [4] (setting [5]) and 15.5 in the series with HeLa Kyoto [4] (cell cycle stage: mitosis).

On to “MNGTLDHPDQPDLDAIKMFVGQVPRTWSEKDLRELFEQYGAVYEINVLRDRSQNPPQSKGCCFVTFYTRKAALEAQNALHNMKVLPGMHHPIQMKPADSEKNNAVEDRKLFIGMISKKCTENDIRVMFSSFGQIEECRILRGPDGLSRGCAFVTFTTRAMAQTAIKAMHQAQTMEGCSSPMVVKFADTQKDKEQKRMAQQLQQQMQQISAASVWGNLAGLNTLGPQYLALYLQLLQQTASSGNLNTLSSLHPMGGLNAMQLQNLAALAAAASAAQNTPSGTNALTTSSSPLSVLTSSGSSPSSSSSNSVNPIASLGALQTLAGATAGLNVGSLAGMAALNGGLGSSGLSNGTGSTMEALTQAYSGIQQYAAAALPTLYNQNLLTQQSIGAAGSQKEGPEGANLFIYHLPQEFGDQDLLQMFMPFGNVVSAKVFIDKQTNLSKCFGFVSYDNPVSAQAAIQSMNGFQIGMKRLKVQLKRSKNDSKPY [CELF1]”, for which, in the series on HeLa Kyoto [1], the “solubility change mitosis (log2)” value is -0.0537. Moreover, the “solubility in G1/S (log2)” value in the series with HeLa Kyoto [2] was determined as 0.269. Further, the melting temperature in the series with HeLa Kyoto [3] (cell cycle stage: G1/S) came to 47.5 °C; in the series on HeLa Kyoto [3] (cell cycle stage: mitosis), 48.1 °C. The results for the thermal stability score in the series with HeLa Kyoto [4] (setting [5]) and in the series on HeLa Kyoto [4] (cell cycle stage: mitosis) were 1.56 and 2.85, respectively.
